Laboratory results as given in the supplement of paper PMC9170038.

Test system: MS2 coat protein
Assay: apparent KD of MS2 coat protein; designed switch direction (-1 OFF switch, 1 ON switch): 1; higher = weaker reporter binding
Method in brief: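 The reported apparent KD is a per-design median over clusters, from curve fits of normalised cluster fluorescence. Protein titrations used SNAP-549-labelled MS2 coat protein, doubled from 0.7 or 1.5 nM to 3 µM, in Tris-HCl pH 7.5 buffer with KCl, MgCl2, BSA, DTT, tRNA and Tween-20, with no input, 200 uM small-molecule ligand, or an oligonucleotide input. The RNA switches were transcribed on Illumina chips by stalled E. coli RNA polymerase.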

[1] = Eterna round: R95, input ligand: FMN 200 uM
[2] = Eterna round: R95, input ligand: microRNA oligo, concentration not stated
[3] = Eterna round: R95, input ligand: none
[4] = input ligand: microRNA oligo, concentration not stated

Sequence	apparent KD of MS2 coat protein [1] [nM]	apparent KD of MS2 coat protein [2] [nM]	apparent KD of MS2 coat protein [3] [nM]	apparent KD of MS2 coat protein (input ligand: FMN 200 uM) [nM]	apparent KD of MS2 coat protein [4] [nM]	apparent KD of MS2 coat protein (input ligand: none) [nM]
GGAGCCGGCACCGAGGAUAUUCAUAUUAAAACAUGAGGAUCACCCAUGUAGAGCGAAAGCUCUUGGGAGAAGGCGGAUCGGCUCG [Xeonanis - 28] (puzzle: Same State 2)	34.1	672	1060			
AGAUCAUGACGAGGAUAUGGUACAUGAGGAUCACCCAUGUAUGUACUAUAACCCGAAUGAGGAAUCCAGAAGGCGUCGUGGUCA [JL SSNG2 1.13] (Eterna round: R96, puzzle: Same State NG 2)				24.4	56.3	93
UGUUGUAUUACAGGAUAUCUAUUAGUUUUGUUUAGAGAAGGGUAUUCACAUGAGGAUCACCCAUGUAUAUACGAGGAAGUUGUG [JMF's solution 97] (Eterna round: R96, puzzle: Same State NG 1)					40.8	
AAUUUGGGACAUGAGGAUCACCCAUGUAUUAUAAAUGGGACAAGUUUUUUGCUCGUCUUAUACAUGGGUGAAAAUCU [Test] (puzzle: Sensor for hsa-mir-208a version 2)	17.8	21.7	23.7			
CAGCGCUGUCGAGAGGAUAUGCGGUGAUGGACAUGAGGAUCACCCAUGUUAGCGGUAGCAUUACGGUAGAAGGCUCUACAGCUGC [Soteed - 3] (puzzle: Same State 2)		24.7				
GACUCUAGAGGAGGAUAUGCAGAGGAUCACCCUGUAGAAGGCCUCAUAAGGAGGAUAUGCAGAGGAUCACCCUGUAGAAGGCCU [pwkr ssNG DX.20] (Eterna round: R96, puzzle: Same State NG 1)				170	85.5	272
GGUGGGUUACUACCAACACAUGAGGAUCACCCAUGUUUUGGGAAGGAUAUGGUACCUAUUUGGUACCAGAAGGUCCCGUUGGUG [salish99_SSNG3_r04_705] (Eterna round: R96, puzzle: Same State NG 3)				28.7	25.8	36
UAAAUAAAGUAAGGAUAUACAUGAGGAUUUCUCGUAGAAGGUACAAGACAUGAGGAUCACCCAUGUAUCGCUCGAAAGAGCGUA [Mat - Same State NG 1 - JL mod - D22] (Eterna round: R96, puzzle: Same State NG 1)				126	67.5	208
GGAAUAUUUACAGGAUAUGUUUUGUUAAGUCGAGCAGAAGGGUGGAUGUCUUACACGGUUUGUUACAUGAGGAUCACCCAUGUC [SameState NG1 #15] (Eterna round: R96, puzzle: Same State NG 1)					188	
UUUAGCGUUACAGGAUAUGGUGAGGAUUACCCACUAGAAGGGUAAACAUGUGCGUCGGACAUGAGGAUCACCCAUGUAGGGCGU (Eterna round: R96, puzzle: Same State NG 1)				28.4	21.6	32.4
GCUCGCACGAUGACCGACAUGAGGAUCACCCAUGUGUGUCGGUAGGAUAUCUAUAUUAAGGAUUUAGAGAAGGGCCCAGCGAGC [SameState NG3 #20] (Eterna round: R96, puzzle: Same State NG 3)				68.3	68.5	69.3
CUAUCUACAGGUUUCAGUGCUCGUCUUAUACAUGAGGAUCACCCAUGUUAUAGCCCGGUGCUUGCGCUGGGCUGAUU [JL ViennaUCT Tearor mod 3] (puzzle: Sensor for hsa-mir-208a)	31.4	14.8	39.3			
AAGAGAGGAAGCGAGGAUAUCGUGGGAGGGACAUGAGGAUCACCCAUGUAGGAUGUUGAGAGGAACGAGAAGGCGCAGGAAAGAA [JR_SS2_Sub074] (puzzle: Same State 2)	87.4	73.3	96.1			
GUUCCACAUGAGGAUCACCCAUGUCACGAACACGCAGGAUAUUGCCUGAGUUUGGACAGGUAAGAAGGGUGAGAGA [Dibeante] (puzzle: Same State 1)	64.3	31.9	28.9			
UCAAGCGUUUGGCUCGUUUUAUGUUUUGUACAUGAGGAUCACCCAUGUUUUGUACGAUCCAGUUAGAUGGUAUUUUG [JR_SHM208A_Sub039] (puzzle: Sensor for hsa-mir-208a)	39.6	93	56.8			
GGCUAUCGCAUUCGAUAGCUUAAGCAUGUACAUGAGGAUCACCCAUGUCAUGUACAGGCUUUUUGCUCGUACUUAUA (puzzle: Sensor for hsa-mir-208a)	286	14.9	366			

Sequence	apparent KD of MS2 coat protein [1] [nM]	apparent KD of MS2 coat protein [2] [nM]	apparent KD of MS2 coat protein [3] [nM]	apparent KD of MS2 coat protein (input ligand: FMN 200 uM) [nM]	apparent KD of MS2 coat protein [4] [nM]	apparent KD of MS2 coat protein (input ligand: none) [nM]
AGAGCCGGCACUGAGGAUAUUCAUAUUAAAACAUGAGGAUCACCCAUGUAGGCCAGAAGGCCUUGGGAGAAGGCAGGUCGGCUCG [Mat - Same State 2 - Mod of UCT - D57] (puzzle: Same State 2)	23.5	244	350			
GCUAGGAUAUGACGAGGAUCACCCGUUAGAAGGAGCGAAGGCUAGGAUAUGACGAGGAUCACCCGUUAGAAGGAGCUGUACUCU [pwkr ssNG3 DX 2xF5 +2xFMN.10] (Eterna round: R96, puzzle: Same State NG 3)				188	64.9	80.3
GGGAAGAGGGACAAGGAUAUGUCAGGAGAGACAUGAGGAUCACCCAUGUGGAGGUUGGAGCAGAGACAGAAGGUGUACGGAGAGA [JR_SS2_Sub010] (puzzle: Same State 2)	108	118	145			
UCUUGGUUUUUGCUCGUUUUUUGUGUUGAACAUGAGGAUCACCCAUGUAUUGUACGGUCCAGUUUGGUGGUAGUCCG [JMF 71] (puzzle: Sensor for hsa-mir-208a)	32.9	24.4	38			
UGUUAUUAGACAGGAUAUUGAAUGUUAAGUAUUAACAUGAGGAUCACCCAUGUAUUUGAUUGGUACAAGAAGGGUCAUGUUUGU [JR_SSNG2_Sub015] (Eterna round: R96, puzzle: Same State NG 2)					303	
GGUCCAGCCUGAGCUGGACAGAAGCAUGUACAUGAGGAUCACCCAUGUCAUGUACAAGCUUUUUGCUCGUCUUAAAA [JL mod - D87 - 1] (puzzle: Sensor for hsa-mir-208a)	439	13.2	498			
AUUCGUUUGAUAGGAUAUCACUUUACAUGAGGAUCACCCAUGUUCACCACGCUGGUUUCUUAUACUGAGAAGGAUCUUGAUGAC [JR_SSNG2_Sub010] (Eterna round: R96, puzzle: Same State NG 2)				19.5	17.1	31.3
GAGUGACAUGAGGAUCACCCAUGUAGAAUAGAACAAGGAUAUGUGGAAGGCGGAGGAGAGACAGAAGGUGUUGAGG [JR_SS1_Sub058] (puzzle: Same State 1)	52	77.1	119			
GCAAACACAUGAGGAUCACCCAUGUGGAAAGAGCAAUUAGGCUAGGAUAUUCAUGUCGUUUGCAAGAAGAAGGAGCCAUAGUGG [Eternabot solution 20] (Eterna round: R96, puzzle: Same State NG 3)					205	
AUGGUGCAGGUACAGGAUAUGUUGCUCGUAACAUGAGGAUCACCCAUGUACCUAUGAGAUUAAAUGCAGAAGGGUGCACACCACU [Mat - Same State 2 - Mod of UCT - D89] (puzzle: Same State 2)	77.1	613	158			
AUUUUUAAUGCAGGAUAUGAUUAACAUGAGGAUCACCCAUGUGGUGUUGUGAGUAAGGAGAGUGAUCAGAAGGGCAUUUUUUUA [JMF's solution 89] (Eterna round: R96, puzzle: Same State NG 2)				1010	554	585
GAGUUACUAUCUCAGGAUAUCAUGUCAAAGACAUGAGGAUCACCCAUGUACCAGGAAACUGGUUAUGAGAAGGGAGAUAGUAACG [Mat - Same State 2 - Mod - D52] (puzzle: Same State 2)	112	116	154			
UGGCUCAGACGAGGAUAUAUGUAAUAACAUGAGGAUCACCCAUGUGUCGAGCUUCGGCUCGACACAUAGAAGGCGUCUGAGCCA [SSNG2/2-A2] (Eterna round: R96, puzzle: Same State NG 2)				14.7	17.9	28.2
UUUUUUUUUUCGAGACAAGCUUUUUGAUCACAUGAGGAUCACCCAUGUCUCGUCUUAUUUUUUUUUUUUUUUUUUUU [BA Sensor hsa-mir-208a - 2 - 1] (puzzle: Sensor for hsa-mir-208a)	343	33.6	21.3			
GCUUCGGCGGUAGGAUAUCUAGGAUAUGGGAAAGACUAAGUCUGUAGGUCACCUAACCCAGAAGGAGAGAAGGACAGGUUCGCC [pwkr ssNG2 2FMN + F9.35] (Eterna round: R96, puzzle: Same State NG 2)				415	1.71	1.98
GGAGAACAUGAGGAUCACCCAUGUGGAUGGGCGCUAGGAUAUGCGAGAGGGUGGAGAGAAGCAGAAGGAGUGGAUA [JR_SS1_Sub037] (puzzle: Same State 1)		50.2				
